Data: patent publication US20110110861A1 (WALTER AND ELIZA HALL INSTITUTE OF MEDICAL RESEARCH, published 2011)

T1: mouse 5B6, full length, membrane bound on cells (mouse)
T1 construct: also called m5B6; mClec9A
T1 chain: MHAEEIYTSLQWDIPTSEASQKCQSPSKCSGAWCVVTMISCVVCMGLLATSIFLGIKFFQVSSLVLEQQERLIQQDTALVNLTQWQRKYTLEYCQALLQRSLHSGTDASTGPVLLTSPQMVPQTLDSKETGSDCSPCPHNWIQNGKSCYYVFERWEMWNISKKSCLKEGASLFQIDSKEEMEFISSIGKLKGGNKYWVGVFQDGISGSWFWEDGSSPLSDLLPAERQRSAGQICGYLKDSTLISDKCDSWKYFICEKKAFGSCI

B1: soluble FLAG-tagged human 5B6 (full ectodomain: stalk/hinge and CTLD) (receptor)
chain: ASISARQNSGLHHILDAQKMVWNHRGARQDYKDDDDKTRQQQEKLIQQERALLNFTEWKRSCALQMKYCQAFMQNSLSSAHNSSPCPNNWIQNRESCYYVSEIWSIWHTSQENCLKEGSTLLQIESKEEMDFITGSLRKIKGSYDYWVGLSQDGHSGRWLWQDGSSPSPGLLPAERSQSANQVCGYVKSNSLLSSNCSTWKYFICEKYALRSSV
notes: Built like m1; also called soluble h5B6; soluble human 5B6
B2: soluble FLAG-tagged mouse 5B6 (full ectodomain: stalk/hinge and CTLD) (receptor)
chain: ASISARQNSGLHHILDAQKMVWNHRGARQDYKDDDDKTREQQERLIQQDTALVNLTQWQRKYTLEYCQALLQRSLHSGTDASTGPVLLTSPQMVPQTLDSKETGSDCSPCPHNWIQNGKSCYYVFERWEMWNISKKSCLKEGASLFQIDSKEEMEFISSIGKLKGGNKYWVGVFQDGISGSWFWEDGSSPLSDLLPAERQRSAGQICGYLKDSTLISDKCDSWKYFICEKKAFGSCI
notes: also called soluble m5B6; soluble mouse 5B6

What was measured:
[1] = biological target: T2, human 5B6, full length, membrane bound on cells (human, UniProt Q6UXN8 1-241); experiment: flow cytometry on live 293T cells transiently transfected with full length untagged h5B6
T2 construct: also called h5B6; hCLEC9A
Description: (§1) To identify binding partners for the 5B6 molecule, the inventors generated the soluble FLAG-tagged m5B6 and h5B6, and a control soluble FLAG-tagged C-type lectin Cire. […] Thus, soluble 5B6 can interact with membrane bound 5B6 in a cross-species manner.
(§2) Binding assays were performed in binding buffer (PBS containing 0.2% BSA/and 0.02% sodium azide), on ice. Cells were washed 3 times with PBS to remove serum proteins, then resuspended in binding buffer. Cells were incubated with either (1) biotinylated soluble Clec9A and controls, and detected with SA-PE, or (2) soluble FLAG-tagged Clec9A, biotinylated anti-FLAG mAb 9H10, then detected with SA-PE. Live cells were gated on forward and side scatter, or by propidium iodide (PI) exclusion, whereas dead cells were gated on forward and side scatter, or by PI inclusion. Analysis of soluble Clec9A binding was performed by flow cytometry using a FACScan (Becton Dickinson).

[2] = biological target: T1, mouse 5B6, full length, membrane bound …; experiment: flow cytometry on live 293T cells transiently transfected with full length untagged m5B6
Description: as §1, §2

T2 sequence (Q6UXN8 whole entry): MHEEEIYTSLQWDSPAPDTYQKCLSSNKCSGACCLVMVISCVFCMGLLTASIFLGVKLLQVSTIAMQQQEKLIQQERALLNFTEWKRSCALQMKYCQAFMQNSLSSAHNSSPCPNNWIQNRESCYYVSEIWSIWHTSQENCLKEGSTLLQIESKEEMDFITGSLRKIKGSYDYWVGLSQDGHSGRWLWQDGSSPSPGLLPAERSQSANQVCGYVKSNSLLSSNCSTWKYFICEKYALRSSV

Binder | binding result [1] | binding result [2]
B1 | binds | binds
B2 | binds | binds
